For data set [1], the target named is T1, Kae1 (residues 1-328 of Methanococcus jannaschii MJ1130), untagged (Methanococcus jannaschii, UniProt Q58530 1-328).
T1 sequence (looked up): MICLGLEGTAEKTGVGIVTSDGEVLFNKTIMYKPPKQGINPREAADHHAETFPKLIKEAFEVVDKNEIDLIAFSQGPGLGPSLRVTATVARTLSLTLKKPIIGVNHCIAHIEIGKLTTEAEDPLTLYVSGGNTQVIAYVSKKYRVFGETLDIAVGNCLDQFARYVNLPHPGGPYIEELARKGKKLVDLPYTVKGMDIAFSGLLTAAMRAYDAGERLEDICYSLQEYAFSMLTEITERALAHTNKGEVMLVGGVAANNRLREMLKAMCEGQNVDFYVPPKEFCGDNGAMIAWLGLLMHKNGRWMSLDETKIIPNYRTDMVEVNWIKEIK
Kind of data set: pull-down.

For data set [2], the target named is T2, GST-Kae1 E233R (M. jannaschii) (Methanococcus jannaschii, UniProt Q58530 1-328, E233R).
T2 sequence (looked up): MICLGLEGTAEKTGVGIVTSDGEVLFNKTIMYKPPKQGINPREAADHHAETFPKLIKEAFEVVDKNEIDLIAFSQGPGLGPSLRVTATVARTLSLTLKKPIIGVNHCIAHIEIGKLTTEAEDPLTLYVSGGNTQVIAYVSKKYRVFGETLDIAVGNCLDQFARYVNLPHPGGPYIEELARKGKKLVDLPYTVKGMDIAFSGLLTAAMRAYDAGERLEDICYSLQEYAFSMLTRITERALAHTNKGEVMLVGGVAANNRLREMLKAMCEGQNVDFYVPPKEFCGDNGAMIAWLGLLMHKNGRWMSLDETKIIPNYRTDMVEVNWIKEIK
In words: pull-down.

Data set [3] concerns the target T3, GST-Kae1 (residues 1-328 of Methanococcus jannaschii MJ1130) (Methanococcus jannaschii, UniProt Q58530 1-328).
T3 sequence (looked up): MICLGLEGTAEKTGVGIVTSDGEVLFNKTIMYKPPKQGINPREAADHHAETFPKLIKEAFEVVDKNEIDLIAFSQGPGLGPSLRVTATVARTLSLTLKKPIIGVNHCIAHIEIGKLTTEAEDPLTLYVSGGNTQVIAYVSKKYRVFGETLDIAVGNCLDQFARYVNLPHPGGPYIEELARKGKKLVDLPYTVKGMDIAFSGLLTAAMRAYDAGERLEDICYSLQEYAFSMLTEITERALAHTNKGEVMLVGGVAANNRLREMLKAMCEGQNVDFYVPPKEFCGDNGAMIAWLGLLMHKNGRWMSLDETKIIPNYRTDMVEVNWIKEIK
Kind of data set: pull-down.

In data set [4] the target is T4, GST-Kae1 E236K (M. jannaschii) (Methanococcus jannaschii, UniProt Q58530 1-328, E236K).
T4 sequence (looked up): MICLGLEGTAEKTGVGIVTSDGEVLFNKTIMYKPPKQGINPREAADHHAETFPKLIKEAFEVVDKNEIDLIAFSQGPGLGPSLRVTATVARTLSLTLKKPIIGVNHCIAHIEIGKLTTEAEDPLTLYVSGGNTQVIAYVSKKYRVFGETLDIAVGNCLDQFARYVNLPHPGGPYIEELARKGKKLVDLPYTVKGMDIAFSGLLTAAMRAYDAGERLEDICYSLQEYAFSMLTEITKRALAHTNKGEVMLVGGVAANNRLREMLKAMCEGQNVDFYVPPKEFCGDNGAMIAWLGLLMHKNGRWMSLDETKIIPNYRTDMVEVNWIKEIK
In words: pull-down.

The data set “SEC” deals with the molecule itself. In words: SEC. For orientation: SEC sorts molecules by how far they enter the pores of the column.
The target in data set [5] is MJ1130 (Kae1-Bud32 fusion of Methanococcus jannaschii) as used for the complex with Cgi121 (Methanococcus jannaschii) (UniProt Q58530). In words: crystal structure.
The target in data set [6] is T5, Bud32 R380E (M. jannaschii) (Methanococcus jannaschii, UniProt Q58530 328-535, R380E).
T5 sequence (looked up): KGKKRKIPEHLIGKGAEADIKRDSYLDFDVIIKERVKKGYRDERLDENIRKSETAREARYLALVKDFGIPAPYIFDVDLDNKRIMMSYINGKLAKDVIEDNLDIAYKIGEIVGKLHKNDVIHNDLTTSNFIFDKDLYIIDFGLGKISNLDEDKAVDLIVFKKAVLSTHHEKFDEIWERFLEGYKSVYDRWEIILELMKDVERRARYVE
Kind of data set: pull-down.

Data set [7] addresses T6, Bud32 V486Y (M. jannaschii) (Methanococcus jannaschii, UniProt Q58530 328-535, V486Y).
T6 sequence (looked up): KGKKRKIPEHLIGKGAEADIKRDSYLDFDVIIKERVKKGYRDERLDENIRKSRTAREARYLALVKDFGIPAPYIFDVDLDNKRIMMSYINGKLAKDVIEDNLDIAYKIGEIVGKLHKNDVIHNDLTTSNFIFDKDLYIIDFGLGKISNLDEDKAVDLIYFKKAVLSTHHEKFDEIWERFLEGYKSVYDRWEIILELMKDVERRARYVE
Kind of data set: pull-down.

Data set [8] has as its target T7, Bud32 K489E (M. jannaschii) (Methanococcus jannaschii, UniProt Q58530 328-535, K489E).
T7 sequence (looked up): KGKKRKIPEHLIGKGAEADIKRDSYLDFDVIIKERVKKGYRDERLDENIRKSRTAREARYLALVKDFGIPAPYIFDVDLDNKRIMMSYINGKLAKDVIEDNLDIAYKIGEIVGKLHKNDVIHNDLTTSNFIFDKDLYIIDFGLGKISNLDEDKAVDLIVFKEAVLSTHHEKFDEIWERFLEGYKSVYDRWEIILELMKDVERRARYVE
In words: pull-down.

For data set [9], the target named is T8, Bud32 K365E (M. jannaschii) (Methanococcus jannaschii, UniProt Q58530 328-535, K365E).
T8 sequence (looked up): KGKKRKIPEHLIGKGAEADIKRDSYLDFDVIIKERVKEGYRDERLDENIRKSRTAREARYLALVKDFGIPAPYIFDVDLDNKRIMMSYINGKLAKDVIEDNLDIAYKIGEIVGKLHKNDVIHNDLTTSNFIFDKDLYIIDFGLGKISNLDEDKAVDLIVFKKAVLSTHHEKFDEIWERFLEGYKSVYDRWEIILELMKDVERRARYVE
In words: pull-down.

The target in data set [10] is T9, Bud32 (residues 328-535 of Methanococcus jannaschii MJ1130), untagged (Methanococcus jannaschii, UniProt Q58530 328-535).
T9 sequence (looked up): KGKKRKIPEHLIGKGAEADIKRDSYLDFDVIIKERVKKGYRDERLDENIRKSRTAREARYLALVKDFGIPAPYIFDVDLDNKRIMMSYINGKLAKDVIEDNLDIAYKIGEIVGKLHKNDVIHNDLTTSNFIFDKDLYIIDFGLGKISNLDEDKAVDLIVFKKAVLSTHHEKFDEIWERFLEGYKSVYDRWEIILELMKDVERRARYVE
Kind of data set: pull-down.

B1: GST-Pcc1 (Pyrococcus furiosus PF2011) (natural protein, UniProt Q8TZI1 1-82, looked up)
chain: MKAKRVQAKIEIEFPSEDVAKVVYEAVLYEHLSVPYRRSEIDFKLEGKKIILDIKATDSSALRGTVNSYLRWIKAAIDVIEV
As for B1, the binding result in data set [1] is given as “binds”.

B2: Pcc1 (Pyrococcus furiosus PF2011), untagged (natural protein, UniProt Q8TZI1 1-82, looked up)
chain: MKAKRVQAKIEIEFPSEDVAKVVYEAVLYEHLSVPYRRSEIDFKLEGKKIILDIKATDSSALRGTVNSYLRWIKAAIDVIEV
On to B2, for which the binding result in data set [2], in [3] and in data set [4] was “binds” throughout.

B3: Pcc1 E30R (P. furiosus) (natural protein, Pyrococcus furiosus, UniProt Q8TZI1 1-82, looked up)
chain: MKAKRVQAKIEIEFPSEDVAKVVYEAVLYRHLSVPYRRSEIDFKLEGKKIILDIKATDSSALRGTVNSYLRWIKAAIDVIEV
As usually defined, the stoichiometry N is the number of molecules, sites or subunits per partner or assembly. As to B3, the “stoichiometry N” value in “SEC” was 2.

B4: Pcc1 V79R (P. furiosus) (natural protein, Pyrococcus furiosus, UniProt Q8TZI1 1-82, looked up)
chain: MKAKRVQAKIEIEFPSEDVAKVVYEAVLYEHLSVPYRRSEIDFKLEGKKIILDIKATDSSALRGTVNSYLRWIKAAIDRIEV
Take B4: in the data set “SEC”, the “stoichiometry N” value amounted to 2.

B5: Pcc1 A75Y/V79R (P. furiosus) (natural protein, Pyrococcus furiosus, UniProt Q8TZI1 1-82, looked up)
chain: MKAKRVQAKIEIEFPSEDVAKVVYEAVLYEHLSVPYRRSEIDFKLEGKKIILDIKATDSSALRGTVNSYLRWIKYAIDRIEV
As to B5, the “stoichiometry N” value in the data set “SEC” was found to be 2.

B6: Pcc1 A75Y (P. furiosus) (natural protein, Pyrococcus furiosus, UniProt Q8TZI1 1-82, looked up)
chain: MKAKRVQAKIEIEFPSEDVAKVVYEAVLYEHLSVPYRRSEIDFKLEGKKIILDIKATDSSALRGTVNSYLRWIKYAIDVIEV
Take B6: the “stoichiometry N” value in “SEC” stood at 2.

B7: GST-Cgi121 (Methanococcus jannaschii MJ0187) (natural protein, UniProt Q57646 1-145, looked up)
chain: MIIRGIRGARINNEIFNLGLKFQILNADVVATKKHVLHAINQAKTKKPIAKSFWMEILVRASGQRQIHEAIKIIGAKDGNVCLICEDEETFRKIYELIGGEIDDSVLEINEDKERLIREIFKIRGFGNVVERVLEKIALIELKKE
B7 returned a stoichiometry N (Cgi121 per MJ1130) in data set [5] of 1. Also, the binding result in data set [6], in data set [7], in [8] and in data set [9] was “binds” throughout.

B8: GST-Cgi121 L139R (M. jannaschii) (natural protein, Methanococcus jannaschii, UniProt Q57646 1-145, looked up)
chain: MIIRGIRGARINNEIFNLGLKFQILNADVVATKKHVLHAINQAKTKKPIAKSFWMEILVRASGQRQIHEAIKIIGAKDGNVCLICEDEETFRKIYELIGGEIDDSVLEINEDKERLIREIFKIRGFGNVVERVLEKIARIELKKE
Take B8: the binding result in data set [10] was “binds”.

B9: GST-Cgi121 A138R (M. jannaschii) (natural protein, Methanococcus jannaschii, UniProt Q57646 1-145, looked up)
chain: MIIRGIRGARINNEIFNLGLKFQILNADVVATKKHVLHAINQAKTKKPIAKSFWMEILVRASGQRQIHEAIKIIGAKDGNVCLICEDEETFRKIYELIGGEIDDSVLEINEDKERLIREIFKIRGFGNVVERVLEKIRLIELKKE
B9: the binding result in [10] was “binds”.

B10: GST-Cgi121 L134E (M. jannaschii) (natural protein, Methanococcus jannaschii, UniProt Q57646 1-145, looked up)
chain: MIIRGIRGARINNEIFNLGLKFQILNADVVATKKHVLHAINQAKTKKPIAKSFWMEILVRASGQRQIHEAIKIIGAKDGNVCLICEDEETFRKIYELIGGEIDDSVLEINEDKERLIREIFKIRGFGNVVERVEEKIALIELKKE
Regarding B10, the binding result in data set [10] is recorded as “binds”.

Values taken from publication PMC3098719 (Molecular cell, 2008).
